# Test system: CyCAST TnsD (with TnsAB, TnsC) (Cyanothece sp. PCC 7425)
# Experiment: cell_activity
# Settings: without TniQ; 0.0006% with TniQ; E. coli
substance,measurement,value
pTarget with tRNA-Leu,activity,0.008 % insertion
